Reference: the nanobody polyreactivity screen of Harvey et al. (2022)

Experiment: yeast display, Sf9 membrane polyspecificity reagent, FACS + sequencing; frameworks hold sequencing errors
In short: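 Genes from sorted yeast were amplified by colony PCR, read by MiSeq 2 × 250 sequencing and filtered on CDR length. These cells carried a synthetic nanobody library in Saccharomyces cerevisiae BJ5465 and were sorted by FACS into low and high (top ~1%) gates on anti-HA and streptavidin fluorescence. Polyreactivity is labelled according to the gate of origin.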

Sequence | polyreactivity (PSR sort gate)
QVQLVESGGGLVQAGGSLSLSCAASGRSFRIYPMGWYRPAPGKERELVATITWRAGSTYYADSVKGRFTISRDNAKNTVYLLMNSLTPEDTAVYYFAAGRQYGGYRYDYWGQGTQVTVSS | high polyreactivity
QVQLVESGGGLVQAGGSLRLSCAASGRIFADYGMGWYRQAPGKERELVAAITDRGGTTYYADSVKGRFTISRDNAKNTVYLQMNSLKPEDTAVYYCAADTPDAPDYSGFYYWGQGTQVTVSS | low polyreactivity
QVQLVESGGGLVQAGGSLRLSCAASGRIFGPNDMGWYRQAPGKERELVAAITDSGDITYYADSVKGRFTISRDIAKNSVYLQMNSLKPEDTAVYYCAADHTYENEYWGQGTQVTVSS | low polyreactivity
QVQLVESGGGLVQAGGSLRLSCDASGTTFVFNAMGWYRHAPGKERELVAAISFSSDTTHYADSVKGRFTISRDNAKNTVYLQMNSLKPEDTAVYYCAADFVGYARNWYYFCGQGTQVTVSS | low polyreactivity
QVQLVESGGGLVQAGGSLRLSCAASGITFVYYAMGWYRQAPGNERELVATIDRSGTSTYYADSVKGRFTISRDNAKNTVVLQMTSLKQEDTAVYDCNAHRYAFYQYYRRMDYWGKGTQVTVSS | high polyreactivity
QVQVVESGGCLVQAGGSLRLSCAASGRMFRRYAMGWYRQAPGKERELVAAISSGGSTYYADSVKGRFTISRDNAKNTVYLQMNSLKPEDTAVYYCNAKVGAYLNYGYWGQGTQVTVSS | low polyreactivity
QVQLVESGGGLVQAGGSLRLSCAASGNNFYVYAMGWYRQATGKERELVAAIRWSGGSTYYADSVKGRFTISRDNGKNTVYLQMNSLKPEDTAVYYCAADYYLYEYEYWGQGTQVTVSS | high polyreactivity
QVKLVESGGGLVQAGGSLRLSCAASGSIFYTYAMGWYRPAPGKERELVAAISSGGSTDYADSVKGRFTISRDNAKNTVYLQMNSLKPEDTAVYYCAAVAVELASEYDYWGQGTQVTVSS | low polyreactivity
QVQLVESGGGLVQAGGSRRLICAASGSIFYTNAMGWYRPAPAKERELVARISFSDGTTNYADSVKGRFTISRDNAKNTVYVQMNSLKPEDTAVYYCATDLYGRPVRFDYWGQGTQVTVSS | low polyreactivity
QVQLVESGGGLVQAGGSLRLSCAASGSTFLVYAMGWYRQAPGKERELVAAITRRSTSTFYADSVKGRFTISRVNAKNTVYLQMNSLKPEDTAVYYWAADTRFISRENYWGQGTQVTVSS | high polyreactivity
QVQLVESGGGLVQAGGSLRLSCAASGRIFTSNTMGWYRPAPGKERELVAAITSSGGSMYYADSVKGRFTISRDNAKNTVYIQMNSLKPEDTAVYYCAARNYFWGQGTQVTVSS | low polyreactivity
QVQLVESGGGLVQAGGSLRLSCAASGSIFIFNTMGWYRQAPGKETELVASISSSGSTYYADSVKGRFTISRANAKNTVYLQMNSLKPEDTAVYYCAADAEDRPSWPGNSEYEYWGQGTQVTVSS | low polyreactivity
QVQLVESGGGLVQSGGSLRLSCDASGRIFSRYAMGWYIQAPGKEREFVAAISRSGTSTYYADSVKVRFTISRDNAKNTVYLQMNSLKPEDTAVYYCAADYPAVISIRRYDYWGQGTQVTVSS | low polyreactivity
QVQLVESGGGLVQAGGSLRLNCAASGSTFARNAMGWYRQAAGKERELVAAISGSGGSTYYADSVKGRFTISRDNAKNTVYLQMNSLKPEDTAVYYCAAARRYYAYRYDYWGQGTQVTVSS | high polyreactivity
QVQLVESGGGLVQAGGSLRLSCAASGRIFSLYAMGWYRQAPGKERELVATMDSNGGSTYYADSVKGRFTISRDNAKNTVYLQMNSLKPEDTAVYYCAAERYVRVWVAGILHYDYWGQGTQVTVSS | low polyreactivity
QVQLVESVGGLVQAGGSLRLTCAASGSTFWLNDMGWYRQATGKERELVAAISFSGASTYYADSVKGRFTISRDNAKNTVYLQMNILKPEDTAVYYCNAGWGRAEFLSEAVFDSRMYYWGQGTQVTVSS | low polyreactivity
QVQLVESGGGLVQAAGSLRLSCAASGRIFRRYAMGWYRQAPGKERELVAAITNNGANTYYADSVKGRFTISRDNAKNTVYLQMNSLKPEDTAVYDCARKSYPGRPAYRYDYWGQGTQVTVSS | high polyreactivity
QVQLVESGGGLVQAGGSLRLSCAASGRTLVYAMGWYRQAPGKERELVATIYRGGNTYYADSVKGRFTISRDNAKNTVYLQMNSLKPEDTAVYYCNKPTYQWGQGTQVTVSS | high polyreactivity
QVQLVESGGGLVQAGGSLRLSCAASGFIFIRNAMGWYRQAPGKERELVAAISSGCRTYYADSVKGRFTISRDNAKNTVYLQMNSLKPEDTAVYYCATRPHRPRGHSVGQYDYWGQGTQVTVSS | high polyreactivity
QVQLVESGGGLVQAGGSLRLSCAASGLTLRNYAMGWYRQAPGKERELVAAITTGGGRTYYADSVKGRFTISRDYAKNTVFLQMKSLKPEDTAVYYCAAEGAILSSDKQSLWRFDYWGQGTQVTVSS | low polyreactivity
QVQLVESGGGLVQAGGSLRLSCAASGRTFARHVMGWYCQAPGKVRELVAGITTSGGSTYYADSVKGRFTISRDNPKNTGYFQMNSLKPEDTAVYYCATDRQRYYRTVRSPIFNYWGQGTQVTVSS | high polyreactivity
QVQLVETGGGLVQAGGSLRLSCAASGFIFSYNAMGWYRQAPGKERELVASISRADSTNYADSVKGRFTISRDNAKNTVYLQMNSLKPEDTAVYYCAKKGRTARRLYSFDYWGQGTQVTVSS | low polyreactivity

Sequence | polyreactivity (PSR sort gate)
QVQLVESGGGLVQAGGSLSLICAASGSIFTRNAMGWYRQAPGKERELVAAISRRGVSTYYADSVKGRFTNSRDNAKNTVYLQMNSLKPEDTAVYYCNKLSSYVVARRTTEYDYWGQGTQVTVSS | high polyreactivity
QVQLVESGGGLVQAGGSLRLSCAASGRILQYNDMGWYRPAPGKERELVAAIDWSGGITYYADSVKGRFTISRDNAKNTVYLQMNSLKPEDTAVYYCNADFEYSYLYRMEYWGQGTQVTVSS | low polyreactivity
QVQLVESGGGLVQAGGSLRLSCAASGFIFVLNVMGWYRQAPGKERELVAAITWRGTSTYYADSVKGRFTISRDNAKNTVYLQMNSLKPEDTAVYYCAVKGFSTRSYREFDYWGQGTQVTVSS | low polyreactivity
QDQLVESGGGLVQAGGSLRLSCAASGIIFYVYAMGWYRLAPGKERELVAAISRSGGRTYYADSVKGRFTISRDNAKNTVYFQMNSLKPEDTAVYYCAADAYRTPTHYYWGQGTQVTVSS | high polyreactivity
QVQLVESGGGLVQAGGSLRLSCAASGRTFGRYAMGWYRQAPGKERELVARIRTSGGRTYYADSVKGRFTISRDNAKYTVYLQMNSLKPEDTAVYYCATTSQPWYYWSTQGDDYWGQGTQVTVSS | low polyreactivity
QVQLVESGGGLVQAGGSLRLSCAASGFIFRGNGMGWYRQAPGNERELVAAISKSGGRTYYADSVKGRFTISRDNAKNTVYLQMNSLKPEDTAVYYCNARRFWRGDYWGQGTQVTVSS | high polyreactivity
QDQLVESGGGLVQAGGSLRLSCAASGNIFKCKVMGWYRQAPGKERELVAAISRSGGRTYYADSVKGRFTISRDNAKNTVYLQMNSLKPVDTAVYYCNTKHRTKPTRPVDYWGQGTQVTVSS | high polyreactivity
QVQLVESGGGLVQAGGSLRLSCASSGRTVGYNAMGWSRQPPGKEREFVAAITWSGGRTYYADSVKGRFTISRDNAKNTVYLLMNSLKPEDTAVYYCAIDGYWDFDYWGQGTQVSVSS | low polyreactivity
QVQLVESGGGLVQEGGSLRLSCAASGFTLHVYAMGWYRQAPGKERELVAAISTGGNTNYADSVKGRFTISRDNAKNTVYLQMNSLKPEDTAVYYCNARYTSRRSRRPYYYWGQGTQVTVSS | high polyreactivity
QVQLVESGGGLVQAGGSLRLSCAASGSTFTYYTMGWYRQAPVKERELVAAISTSGGRTYDADSVKGRFTISRDYAKIPVFLQMNSLKPEDTAVYYCAAYSRTYDREFDYWGQGTQVTVSS | high polyreactivity
QVQLVESGGGLVQAGGSLRLSCAASGSTFGSNAMGWYRQAPGKERELVAAITYSGGRTYYADSVKGRFTISRDNAKNTVYLQMNSLKPEDTAVYYCAATFGFFYYQYDYWGQGTQVTVSS | low polyreactivity
QVQLVESGGGLVQAGGSLRLRCAASGSIFKGYAMGSYRQAPGKERELVAAIRGSGGSSYYADSVKGRFTISRDNAKNTVYFQLISLTPEDTAFYYCAAVAYTGGPRKLGFNYWGQATQVTVSS | high polyreactivity
QVQLVESAGGLVQAGGSLRLSCAASGYTFYRNAMGCYRQAPGKERELVAAISWRGGSTYYADSVKGRFTISRDNAKNTVYLQMNSLKPEDTAVYYCAAYFSYGGSTTGEEYWGQGTQVTVSS | high polyreactivity
QVQLVESGGGLVQAGGSLRLSCAASGFIFLDNAMGWNRQAPGKERELVDAISSTGSTYADSVKGRFTISRDNAKNTVYLQMNSLKPEDTAVYYCAADIEVSWDDDGYYPEYDYWGQGTQVTVSS | low polyreactivity
QVQLVESGGGLVQAGGSLRLSCAASGGIFAPYAMGWYRQAPGKERELVADITSEGGSTYYADSVKGRFTISRDIEKNTVYLQMNSLKPEDTAVYYCAAEQRYCWWGHPGDYWGKGTQVTVSS | low polyreactivity
QVQLVESGGGLVQAGGSLRLSCAASGRIFSHDVMGWYRQAPGKERELVAAISSSGGSTYYADSVKGRFTISRDNAKNTVYLQMNSLKPEDTAVYYCAADQWASGTDDYWGQGTEVTVSS | low polyreactivity
QVQLVESGGGLVQAGGSLRLSCAAYGITFYWYAMGRYRQAPGKEWELVAGISQSGSRTYYADSVKGRFTISRDNAKNTVYLQMNSLKPEDTAVYYCAARVRWSPTRTFEYWGQGTQVTVSS | high polyreactivity
QVQLVESGGGIVQAGGSLRLSCAASGYTFAKYAMGWYRQEPGKERELVAAISSSGGRTYYADSVKGRFTISRDIAKNTVYLQMNSLKPEDTAVYYCNAYGQRDYWGQGSQVTVSS | high polyreactivity
QVQLVESGGGLVQAGGSLRLSCAASGLIFWGYTMGWYRQAPGKERELVAAISRRGGRTYYADSVKGRFTISRDNAKNTVYLQMNSLKPEDTAVYYCNADITSSGPKSDYWGQGTQVTVSS | high polyreactivity
QVQLVESGGGLVQAGGSLRLSCDASGRIFYINALGWYRQAPGKERELVASITGSGDSTYYADSVKGRFTISRDNAKNTVYLQMNILKPEDTAVYYCAARTYYYYGPRYYYWGQGTQVTVSS | low polyreactivity
QVQLLESVGGLVQAGGSLRLSSMASGSILGDRMSWYRHAPGKEHELVATIYDGGITYYADSMKGRFTISRDNAKNTVYLQMNSLRPEDSAVYYCGASFEGYRYHVYCGQGTQVTVSS | low polyreactivity
